# Results from article PMC9886945.
# Several values for one entry are separate records, joined by “and”; a condition that tells them apart may be missing. Identical values can stand only once.
# What was measured:
# [1] = biological target: Mycobacterium tuberculosis RNA polymerase holoenzyme with the σ^B subunit (M. tuberculosis) (UniProt P9WGZ1); experiment: SEC
# [2] = biological target: Mycobacterium tuberculosis RNA polymerase holoenzyme with the σ^B subunit (M. tuberculosis) (UniProt P9WGZ1); experiment: cryo-EM structure
# [3] = biological target: Mycobacterium tuberculosis RNA polymerase holoenzyme with the σ^B subunit (M. tuberculosis) (UniProt P9WGZ1); experiment: negative stain EM
# [4] = biological target: Mycobacterium tuberculosis RNA polymerase core (M. tuberculosis) (UniProt P9WGZ1); experiment: SEC
Substance,stoichiometry N [1],percent of oligomer particles that are octamers [2] [%],percent of oligomer particles that are tetramers [2] [%],stoichiometry N [2],RNAP concentration from which octamers form [3] [µM],percent of molecules in oligomers after 24 h at 4 °C [3] [%],stoichiometry N [3],stoichiometry N [4]
"Mycobacterium tuberculosis RNA polymerase holoenzyme with the σ^B subunit, P9WGZ1;P9WGY9;P9WGY7;P9WGY5;P9WGI5",8,80,20,8 and 4,0.1,86,8,–
Mycobacterium tuberculosis RNA polymerase core (from UniProt P9WGZ1;P9WGY9;P9WGY7;P9WGY5) (complex),–,–,–,–,–,–,–,2
